Assay results taken from patent publication US20230174652A1 (Regeneron, published 2023).

Columns and labels:
[1] = biological target: T1, CD3 molecules on human T cells (human, UniProt P07766 23-207); test: cell-based or functional assay
[2] = biological target: T1, CD3 molecules on human T cells; test: cell-based or functional assay; remark: listed apart in the source

T1 sequence (P07766 23-207): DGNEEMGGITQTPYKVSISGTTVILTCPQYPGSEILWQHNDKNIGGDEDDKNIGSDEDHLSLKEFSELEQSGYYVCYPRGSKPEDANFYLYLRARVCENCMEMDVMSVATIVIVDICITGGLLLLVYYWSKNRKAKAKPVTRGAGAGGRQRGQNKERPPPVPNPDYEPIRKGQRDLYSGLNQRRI

CD4+ T cell activation (% CD25+), Fold Change (EC50), fixed REGN5837 0 (reference) [1]: 1 fold
CD4+ T cell activation (% CD25+), REGN1979 EC50 (M), fixed REGN5837 0 [1]: 9.17e-13 M
CD4+ T cell activation (% CD25+), REGN1979 EC50 (M), fixed REGN5837 1.00 × 10^-7 [1]: 1.16e-13 M
CD4+ T cell activation (% CD25+), REGN1979 EC50 (M), fixed REGN5837 1.67 × 10^-8 [1]: 8.7e-14 M
CD4+ T cell activation (% CD25+), REGN1979 EC50 (M), fixed REGN5837 4.63 × 10^-10 [1]: 1.46e-13 M
CD4+ T cell activation (% CD25+), REGN1979 EC50 (M), fixed REGN5837 7.72 × 10^-11 [1]: 2.08e-13 M
CD4+ T-cell Proliferation, Fold Change (EC50), fixed REGN5837 0 (reference) [1]: 1 fold
CD4+ T-cell Proliferation, REGN1979 EC50 (M), fixed REGN5837 0 [1]: 1.63e-11 M
CD4+ T-cell Proliferation, REGN1979 EC50 (M), fixed REGN5837 1.00 × 10^-7 [1]: 8.42e-13 M
CD4+ T-cell Proliferation, REGN1979 EC50 (M), fixed REGN5837 1.67 × 10^-8 [1]: 9.31e-13 M
CD4+ T-cell Proliferation, REGN1979 EC50 (M), fixed REGN5837 2.78 × 10^-9 [1]: 4.25e-13 M
CD4+ T-cell Proliferation, REGN1979 EC50 (M), fixed REGN5837 4.63 × 10^-10 [1]: 1.25e-12 M
CD4+ T-cell Proliferation, REGN1979 EC50 (M), fixed REGN5837 7.72 × 10^-11 [1]: 2.36e-12 M
CD8+ T cell activation (% CD25+), Fold Change (EC50), fixed REGN5837 0 (reference) [1]: 1 fold
CD8+ T cell activation (% CD25+), REGN1979 EC50 (M), fixed REGN5837 0 [1]: 3.38e-12 M
CD8+ T cell activation (% CD25+), REGN1979 EC50 (M), fixed REGN5837 1.00 × 10^-7 [1]: 6.32e-13 M
CD8+ T cell activation (% CD25+), REGN1979 EC50 (M), fixed REGN5837 1.67 × 10^-8 [1]: 5.88e-13 M
CD8+ T cell activation (% CD25+), REGN1979 EC50 (M), fixed REGN5837 2.78 × 10^-9 [1]: 2.68e-13 M
CD8+ T cell activation (% CD25+), REGN1979 EC50 (M), fixed REGN5837 4.63 × 10^-10 [1]: 9.01e-13 M
CD8+ T cell activation (% CD25+), REGN1979 EC50 (M), fixed REGN5837 7.72 × 10^-11 [1]: 1.64e-12 M
CD8+ T-cell Proliferation, Fold Change (EC50), fixed REGN5837 0 (reference) [1]: 1 fold
CD8+ T-cell Proliferation, REGN1979 EC50 (M), fixed REGN5837 0 [1]: 1.97e-11 M
CD8+ T-cell Proliferation, REGN1979 EC50 (M), fixed REGN5837 1.00 × 10^-7 [1]: 1.55e-12 M
CD8+ T-cell Proliferation, REGN1979 EC50 (M), fixed REGN5837 1.67 × 10^-8 [1]: 8.31e-13 M
CD8+ T-cell Proliferation, REGN1979 EC50 (M), fixed REGN5837 2.78 × 10^-9 [1]: 7.09e-13 M
CD8+ T-cell Proliferation, REGN1979 EC50 (M), fixed REGN5837 4.63 × 10^-10 [1]: 3.43e-12 M
CD8+ T-cell Proliferation, REGN1979 EC50 (M), fixed REGN5837 7.72 × 10^-11 [1]: 8.36e-12 M
IFN-gamma release, Fold change (CKR), fixed REGN5837 0 (reference) [2]: 1 fold
IFN-gamma release, REGN1979 EC50 (M), fixed REGN5837 0 [2]: 1.82e-10 M
IFN-gamma release, REGN1979 EC50 (M), fixed REGN5837 1.0 X 10^-7 [2]: 1.17e-10 M
IFN-gamma release, REGN1979 EC50 (M), fixed REGN5837 1.67 X 10^-8 [2]: 5.34e-11 M
IFN-gamma release, REGN1979 EC50 (M), fixed REGN5837 2.78 X 10^-9 [2]: 2e-10 M
IFN-gamma release, REGN1979 EC50 (M), fixed REGN5837 4.63 X 10^-10 [2]: 6.72e-11 M
IFN-gamma release, REGN1979 EC50 (M), fixed REGN5837 7.72 X 10^-11 [2]: 6.57e-11 M
IL-2 release, Fold change (CKR), fixed REGN5837 0 (reference) [2]: 1 fold
IL-2 release, REGN1979 EC50 (M), fixed REGN5837 0 [2]: 1.25e-10 M
IL-2 release, REGN1979 EC50 (M), fixed REGN5837 1.0 X 10^-7 [2]: 2.81e-11 M
IL-2 release, REGN1979 EC50 (M), fixed REGN5837 1.67 X 10^-8 [2]: 1.96e-11 M
IL-2 release, REGN1979 EC50 (M), fixed REGN5837 2.78 X 10^-9 [2]: 5.18e-12 M
IL-2 release, REGN1979 EC50 (M), fixed REGN5837 4.63 X 10^-10 [2]: 5.36e-11 M
IL-2 release, REGN1979 EC50 (M), fixed REGN5837 7.72 X 10^-11 [2]: 3.89e-08 M
IL-4 release, Fold change (CKR), fixed REGN5837 0 (reference) [2]: 1 fold
IL-4 release, REGN1979 EC50 (M), fixed REGN5837 0 [2]: 9.99e-10 M
IL-4 release, REGN1979 EC50 (M), fixed REGN5837 1.0 X 10^-7 [2]: 1.66e-11 M
IL-4 release, REGN1979 EC50 (M), fixed REGN5837 1.67 X 10^-8 [2]: 1.53e-11 M
IL-4 release, REGN1979 EC50 (M), fixed REGN5837 2.78 X 10^-9 [2]: 1.28e-11 M
IL-4 release, REGN1979 EC50 (M), fixed REGN5837 4.63 X 10^-10 [2]: 1.89e-11 M
IL-4 release, REGN1979 EC50 (M), fixed REGN5837 7.72 X 10^-11 [2]: 3.77e-10 M
IL-6 release, Fold change (CKR), fixed REGN5837 0 (reference) [2]: 1 fold
IL-6 release, REGN1979 EC50 (M), fixed REGN5837 0 [2]: 7.42e-11 M
IL-6 release, REGN1979 EC50 (M), fixed REGN5837 1.0 X 10^-7 [2]: 5.13e-11 M
IL-6 release, REGN1979 EC50 (M), fixed REGN5837 1.67 X 10^-8 [2]: 7.89e-12 M
IL-6 release, REGN1979 EC50 (M), fixed REGN5837 2.78 X 10^-9 [2]: 2.68e-11 M
IL-6 release, REGN1979 EC50 (M), fixed REGN5837 4.63 X 10^-10 [2]: 1.45e-12 M
IL-6 release, REGN1979 EC50 (M), fixed REGN5837 7.72 X 10^-11 [2]: 1.61e-10 M
IL-10 release, Fold change (CKR), fixed REGN5837 0 (reference) [2]: 1 fold
IL-10 release, REGN1979 EC50 (M), fixed REGN5837 0 [2]: 9.95e-11 M
IL-10 release, REGN1979 EC50 (M), fixed REGN5837 1.0 X 10^-7 [2]: 3.54e-11 M
IL-10 release, REGN1979 EC50 (M), fixed REGN5837 1.67 X 10^-8 [2]: 1.04e-10 M
IL-10 release, REGN1979 EC50 (M), fixed REGN5837 2.78 X 10^-9 [2]: 2.43e-10 M
IL-10 release, REGN1979 EC50 (M), fixed REGN5837 4.63 X 10^-10 [2]: 5.29e-11 M
IL-10 release, REGN1979 EC50 (M), fixed REGN5837 7.72 X 10^-11 [2]: 3.34e-11 M
IL-17A release, Fold change (CKR), fixed REGN5837 0 (reference) [2]: 1 fold
IL-17A release, REGN1979 EC50 (M), fixed REGN5837 0 [2]: 2.5e-10 M
IL-17A release, REGN1979 EC50 (M), fixed REGN5837 1.0 X 10^-7 [2]: 3.22e-10 M
IL-17A release, REGN1979 EC50 (M), fixed REGN5837 1.67 X 10^-8 [2]: 1.11e-10 M
IL-17A release, REGN1979 EC50 (M), fixed REGN5837 2.78 X 10^-9 [2]: 7.6e-11 M
IL-17A release, REGN1979 EC50 (M), fixed REGN5837 4.63 X 10^-10 [2]: 4.63e-10 M
IL-17A release, REGN1979 EC50 (M), fixed REGN5837 7.72 X 10^-11 [2]: 1.86e-10 M
TNF alpha release, Fold change (CKR), fixed REGN5837 0 (reference) [2]: 1 fold
TNF alpha release, REGN1979 EC50 (M), fixed REGN5837 0 [2]: 2.43e-10 M
TNF alpha release, REGN1979 EC50 (M), fixed REGN5837 1.0 X 10^-7 [2]: 5.03e-12 M
TNF alpha release, REGN1979 EC50 (M), fixed REGN5837 1.67 X 10^-8 [2]: 8.69e-13 M
TNF alpha release, REGN1979 EC50 (M), fixed REGN5837 2.78 X 10^-9 [2]: 3.45e-12 M
TNF alpha release, REGN1979 EC50 (M), fixed REGN5837 7.72 X 10^-11 [2]: 1.62e-10 M
B1: REGN1979 (bispecific antibody, human IgG4 S228P, kappa)
heavy 1: EVQLVESGGGLVQPGRSLRLSCVASGFTFNDYAMHWVRQAPGKGLEWVSVISWNSDSIGYADSVKGRFTISRDNAKNSLYLQMHSLRAEDTALYYCAKDNHYGSGSYYYYQYGMDVWGQGTTVTVSSASTKGPSVFPLAPCSRSTSESTAALGCLVKDYFPEPVTVSWNSGALTSGVHTFPAVLQSSGLYSLSSVVTVPSSSLGTKTYTCNVDHKPSNTKVDKRVESKYGPPCPPCPAPPVAGPSVFLFPPKPKDTLMISRTPEVTCVVVDVSQEDPEVQFNWYVDGVEVHNAKTKPREEQFNSTYRVVSVLTVLHQDWLNGKEYKCKVSNKGLPSSIEKTISKAKGQPREPQVYTLPPSQEEMTKNQVSLTCLVKGFYPSDIAVEWESNGQPENNYKTTPPVLDSDGSFFLYSRLTVDKSRWQEGNVFSCSVMHEALHNHYTQKSLSLSLGK
heavy 2: EVQLVESGGGLVQPGRSLRLSCAASGFTFDDYTMHWVRQAPGKGLEWVSGISWNSGSIGYADSVKGRFTISRDNAKKSLYLQMNSLRAEDTALYYCAKDNSGYGHYYYGMDVWGQGTTVTVASASTKGPSVFPLAPCSRSTSESTAALGCLVKDYFPEPVTVSWNSGALTSGVHTFPAVLQSSGLYSLSSVVTVPSSSLGTKTYTCNVDHKPSNTKVDKRVESKYGPPCPPCPAPPVAGPSVFLFPPKPKDTLMISRTPEVTCVVVDVSQEDPEVQFNWYVDGVEVHNAKTKPREEQFNSTYRVVSVLTVLHQDWLNGKEYKCKVSNKGLPSSIEKTISKAKGQPREPQVYTLPPSQEEMTKNQVSLTCLVKGFYPSDIAVEWESNGQPENNYKTTPPVLDSDGSFFLYSRLTVDKSRWQEGNVFSCSVMHEALHNRFTQKSLSLSLGK
light: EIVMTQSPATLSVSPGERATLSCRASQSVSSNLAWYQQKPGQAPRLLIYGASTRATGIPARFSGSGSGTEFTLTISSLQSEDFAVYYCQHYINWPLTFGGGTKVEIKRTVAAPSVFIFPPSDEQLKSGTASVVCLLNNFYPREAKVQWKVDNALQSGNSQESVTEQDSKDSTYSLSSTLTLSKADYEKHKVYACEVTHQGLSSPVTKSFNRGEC
WSU-DLCL2 Cell Killing, Fold Change (EC50), fixed REGN5837 0 (reference) [1]: 1 fold
WSU-DLCL2 Cell Killing, REGN1979 EC50 (M), fixed REGN5837 0 [1]: 2.89e-12 M
WSU-DLCL2 Cell Killing, REGN1979 EC50 (M), fixed REGN5837 1.00 × 10^-7 [1]: 8.53e-14 M
WSU-DLCL2 Cell Killing, REGN1979 EC50 (M), fixed REGN5837 1.67 × 10^-8 [1]: 1.85e-13 M
WSU-DLCL2 Cell Killing, REGN1979 EC50 (M), fixed REGN5837 2.78 × 10^-9 [1]: 3.98e-13 M
WSU-DLCL2 Cell Killing, REGN1979 EC50 (M), fixed REGN5837 4.63 × 10^-10 [1]: 3.46e-13 M
WSU-DLCL2 Cell Killing, REGN1979 EC50 (M), fixed REGN5837 7.72 × 10^-11 [1]: 8.37e-13 M
